Columns and labels:
[1] = biological target: human recombinant HER2 protein (extracellular domain Thr23-Thr652 of human ERBB2 with His tag) (human) (UniProt P04626); test: SEC-MALS
[2] = biological target: human recombinant HER2 protein (extracellular domain Thr23-Thr652 of human ERBB2 with His tag) (human) (UniProt P04626); test: SEC

percent of antibody unbound (mixed 1:1) [1]: 40%
percent of antibody unbound (mixed 1:1) [2]: 40%
Substance: trastuzumab stressed at 45°C for 10 days (45C10d) (antibody)

— paper PMC7899689
